Test: yeast display, Sf9 membrane polyspecificity reagent, FACS + sequencing; frameworks hold sequencing errors
Outline: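 Polyreactivity labels are assigned by the sorting gate from which each nanobody was recovered. The gates were low and high (top ~1%), set on anti-HA fluorescence for expression and streptavidin fluorescence for reagent binding. Before sorting, galactose-induced (36–48 hours) yeast display cells were stained for 1 hour at 4 °C with 10% biotinylated, detergent-solubilized Sf9 membrane reagent.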
With “QVQHVESGGGLVQAGGSLRLSCAASGGIFRFYAMGWYRQAPGKERELVARITSSGGGTYYADSVKGRFTISRDNAKNTVYLQMNSLKPEDTAVSYCAALVYSSYPAGWYDYWGQGTQVTVSS” the “polyreactivity (PSR sort gate)” value was “high polyreactivity”. With “QVQHVESGGGLVQAGGSLRLSCAASGGTFVWYAMGWYRQAPGKERELVAAISSSGGRTYYADSVKGRFTISRDNAKNTVYLQMNSLKPEDTAVYYCNAAPYYVLYLLWSSNTYDYWGQGTQVTVSS” the “polyreactivity (PSR sort gate)” value was “high polyreactivity”. With “QVQHVESGGGLVQAGGSLRLSCAASGIIFGTNALGWYRQAPGKERELVAYITSGGSTYADSVKGRFTISRDNAKNTVYLQMNSLKPEDTAVYYCAAYVFWAFYEYDYWGQGTQVTVSS” the “polyreactivity (PSR sort gate)” value was “low polyreactivity”. For “QVQHVESGGGLVQAGGSLRLSCAASGIIFTTYAMGWYRQAPGKERELVAAISRSGSTYYADSVKGRFTISRDNAKNTVYLQMNSLKPEDTAVYYCASGRWRWRGYDYYWGQGSQVTVSS”, the “polyreactivity (PSR sort gate)” value was “high polyreactivity”. With “QVQHVESGGGLVQAGGSLRLSCAASGITFFYYAMGWYRQAPGKERELVAAISTSGGRTYYADSVKGRFTISRDNAKNTVYLQMNSLKPEDTAVYYCADQSGWLRYYYWGQGTQVTVSS” the “polyreactivity (PSR sort gate)” value was “high polyreactivity”. In the case of “QVQHVESGGGLVQAGGSLRLSCAASGLIFSRYVMGWYRQAPGKERELVAAISRSGGSTYYADSVKGRFTISRDNAKNTVYLQMNSLKPEDTAVYYCNAGRRTGRYGYWGQGTQVTVSS”, the “polyreactivity (PSR sort gate)” value is reported as “high polyreactivity”. With “QVQHVESGGGLVQAGGSLRLSCAASGLTFSYNAMGWYRQAPAKERELVAAIRSGGSTNYADSVKGRFTISRDNAKNTVYLEMYSLKPVDSAVYFCADKSVTGVFRYYYWGQGSQVTVSS” the “polyreactivity (PSR sort gate)” value was “low polyreactivity”. For “QVQHVESGGGLVQAGGSLRLSCAASGLTFYSYAMGWYRQAPGKERELVATISGGGSTTYADSVKGRFTISRDNAKNTVYLQMNSLKPEDTAVYYCAARSNHYRGWPVPLGYWGQGTQVTVSS”, the “polyreactivity (PSR sort gate)” value was “high polyreactivity”. In the case of “QVQHVESGGGLVQAGGSLRLSCAASGRIFDTYTMGWYRAAPGKVRELVAAITSGGSTYYADSVKGRFTISRDNATNTVYLQMNSLKPEDTAVYYCAARYRSIIRYYYWGQGTQVTVSS”, the “polyreactivity (PSR sort gate)” value is reported as “high polyreactivity”. In the case of “QVQHVESGGGLVQAGGSLRLSCAASGRIFHFNAMGWYRQAPGKERELVAAISYRGGSTYYADSVKGRFTISRDNAKNTVYLQMNSLKPEDTAVYYCAAYTRHSARTYYYSYDYWGQGTQVTVSS”, the “polyreactivity (PSR sort gate)” value is reported as “high polyreactivity”. With “QVQHVESGGGLVQAGGSLRLSCAASGRIFNRYAMVWYRQAPGKERELVAAISASGDNTYYADSVKGRFTISRDNAKNTVYLQMISLKPEDTAVFYCAARYYTYLHFSMYYWGQGTQVTVSS” the “polyreactivity (PSR sort gate)” value was “high polyreactivity”. For “QVQHVESGGGLVQAGGSLRLSCAASGRIFRDNAMGRNRQAPGKEREVVAAISRRGGSTYYADSVKGRFTISRDNAKNTVYLQLNSLKPEDTAVYYCNKTTHSRTFRYDYWGQGTQVTVSS”, the “polyreactivity (PSR sort gate)” value was “low polyreactivity”. With “QVQHVESGGGLVQAGGSLRLSCAASGRIFWDNASGWYRQAPGKVSELHAAISDSVVITYFADSVKGRFTISRDTAKYTVYLQMNSLKPEDTAFYYCAAHKRCTVYLSSFWMDYWGQGNQVTVSS” the “polyreactivity (PSR sort gate)” value was “low polyreactivity”. With “QVQHVESGGGLVQAGGSLRLSCAASGRIFYAYTMGWYRQAPGKERELGAAISRSGSTYYADSVKGRFTISRDNAKNPVYLQMNSLKPEDTAVYYCAADVTGGRKYDYWGQGTQVTVSS” the “polyreactivity (PSR sort gate)” value was “low polyreactivity”. For “QVQHVESGGGLVQAGGSLRLSCAASGRIIPGNAMGWYRQAPGKERDLVAAISYGGGSTYYADSVKGRFTISRDNAKNTVYLQMNSLKPEATAVYYCNAGWIRNYGFSIVTYDYWGQGTQVTVSS”, the “polyreactivity (PSR sort gate)” value was “low polyreactivity”. In the case of “QVQHVESGGGLVQAGGSLRLSCAASGRTFFENAMGWYRQAPGKEMELVAAISWDGGTTYADSVKGRFSISRDNAKNTVYLQMNSLKPEDTAVYYCNAEVRSNDARGDNDYCGQGTQVTVSS”, the “polyreactivity (PSR sort gate)” value is reported as “low polyreactivity”. With “QVQHVESGGGLVQAGGSLRLSCAASGRTFGFNAMGWYRQATGKERELVAAITYSGGRTYYADSVKGRFTISRDNAKNTVYLHMNSLKPEDTAVYFCAALTRRVKKYDYLGQGTQVTVSS” the “polyreactivity (PSR sort gate)” value was “high polyreactivity”. In the case of “QVQHVESGGGLVQAGGSLRLSCAASGRTFGYNDMGWSRQAHGKERELVATISWGGGSTYYADSVKWRFTISRDNAKNTVYLQMNSLKAEDTAVYYCNKVHFGRRHSYSGAIYGEDYWGLGTQVTVSS”, the “polyreactivity (PSR sort gate)” value is reported as “high polyreactivity”. For “QVQHVESGGGLVQAGGSLRLSCAASGRTFHWYAMGWYRQAPGKERELVAAIRYSAGSTYYADSVKGRFTISRDNAKNTVYLQMNSLKPEDTAVYYCAARPPYTDSSPGERTYDYWGQGTQVTVSS”, the “polyreactivity (PSR sort gate)” value was “low polyreactivity”. With “QVQHVESGGGLVQAGGSLRLSCAASGRTFITYAMGWYRQGPGKERELVATISGGGGTNYADSVKGRFTISRDNAKNTVYLQMNSLKPEDTAVYYCNKRAWYVYTHFDYWGLGTQVTVSS” the “polyreactivity (PSR sort gate)” value was “low polyreactivity”. In the case of “QVQHVESGGGLVQAGGSLRLSCAASGRTFKYNAMGWYRQAPGKEWELVAVIRYSGGTTYYADSVKGRFTISRDNAKNTVYLQMNSLKPEDTAVYYCAADSWSRSVNYYYWVQGTQVTVSS”, the “polyreactivity (PSR sort gate)” value is reported as “low polyreactivity”. In the case of “QVQHVESGGGLVQAGGSLRLSCAASGRTFPAYAMGWYRQAPGKERELVAAITYDGGTTYYADSVKGRFTISRYNAKNTVYLQMNSLKPEDTAVYYCADVYDEDQYDYWGQGTQVTVSS”, the “polyreactivity (PSR sort gate)” value is reported as “low polyreactivity”. With “QVQHVESGGGLVQAGGSLRLSCAASGRTFRRNAVGWYRQAPGNERELVATISRGGSTTYADSVKGRFTISRDKAKNTVYLQMNSLKPEDTAVYYCAARTSKRYSYADHDYWGQGTQVTVSS” the “polyreactivity (PSR sort gate)” value was “low polyreactivity”. In the case of “QVQHVESGGGLVQAGGSLRLSCAASGRTFTPYAMGWYRQAPGKEREFVAAISIVGRTKYADSVKGRFTISRDNAKNTVYLQMNSLKPEDTAVYYCNAQDSRDRKFYWGYTRGHWGQGTQVTVSS”, the “polyreactivity (PSR sort gate)” value is reported as “low polyreactivity”. In the case of “QVQHVESGGGLVQAGGSLRLSCAASGSIFGQYAMGWDRQSPGKERELVAAISTSGGSTYYADSVKGRFTISRDNAKYSVYLQMYSLKPEDTAVYYCNAFNYGTQTYGYWGQGTQVTVSS”, the “polyreactivity (PSR sort gate)” value is reported as “high polyreactivity”. In the case of “QVQHVESGGGLVQAGGSLRLSCAASGSIFTDYAMGWYRQAPGHDRELVAAITLGGNTNYADSVKGRFTISRDNAKHSVYLEMISLLREDTAVYDCATGGYYSAIVYGGYDVWGQGTQVTVSS”, the “polyreactivity (PSR sort gate)” value is reported as “low polyreactivity”. With “QVQHVESGGGLVQAGGSLRLSCAASGSIFTGNAMGWYRQAPGKERELVAAISSSGGSTYYADSVKGRFTISRDNAKNTVYLQMNSLKPEDTAVYYCAAYNYFLQYDYWGQGTQVTVSS” the “polyreactivity (PSR sort gate)” value was “low polyreactivity”. With “QVQHVESGGGLVQAGGSLRLSCAASGSIFVYYAMGGYRQAPGKERELVAAISRSGGNTYYADSVKGRFTISRDNAKNTVYLQMNSLKPEDTAVYYCAAQPYVEGTKRYYWGQGTQVTVSS” the “polyreactivity (PSR sort gate)” value was “high polyreactivity”. In the case of “QVQHVESGGGLVQAGGSLRLSCAASGSIFYIYAMGWYRQAPGKERELVASISRSGGSTYYADSVKGRFTISRDNAKNTVYLQMNSLKPEDTAVYYCAAVITFYRYPPGETYYYWGQGTQVTVSS”, the “polyreactivity (PSR sort gate)” value is reported as “high polyreactivity”. In the case of “QVQHVESGGGLVQAGGSLRLSCAASGSILDIYAMGWYRQATGKERELVAAITGGGSTNYADSVNGRFTISRDNAKNTVYLLMNSLKPEDTAVYYCAAGTYLNGGGEYWGQGTQVTVSS”, the “polyreactivity (PSR sort gate)” value is reported as “low polyreactivity”. For “QVQHVESGGGLVQAGGSLRLSCAASGSILPFNAMGWYRQAPGKVRELVAAIDGSGGDTYYADSVKGRFTISRDNAKNTVYLQMNSLKAEDTAVYYCAAEYYYTSQLAKYHYGYEYWGQGTQETVSS”, the “polyreactivity (PSR sort gate)” value was “high polyreactivity”. For “QVQHVESGGGLVQAGGSLRLSCAASGSTFGRYAMGWYRQAPGKERELVARISWGGGSTYYADSVKGRFTISRDNAKNTVYLQMNSLKPEDSAVYYCATRVYRSAVSYDYWGQGTQVTVSS”, the “polyreactivity (PSR sort gate)” value was “high polyreactivity”. With “QVQHVESGGGLVQAGGSLRLSCAASGSTFRTYGMGWYRQAPGKERELVAGITRGGSTTYADSVKGRFTISRDNAKNTVYLQMNSLKPEDTAVYYCNAGYVRVRAHNYDYWGQGTQVTVSS” the “polyreactivity (PSR sort gate)” value was “high polyreactivity”. With “QVQHVESGGGLVQAGGSLRLSCAASGSTFSQYGMGWYRQAPGKEREFVAGISGSGGRTYYADSVKGRFTSSRDNAKNTVYLQMNSLKPEDTAVYYCAAETVYKWWYDYYYWGQGTQVTVSS” the “polyreactivity (PSR sort gate)” value was “high polyreactivity”. With “QVQHVESGGGLVQAGGSLRLSCAASGSTFSYKVMGWYRQAPGKERELVAAISQSGGSTYYADSVKGRFTISRDNAKNTVYLHMNSLKPEDTAVYYCAAERRYYYGWGSFDYWGQGTQVTVSS” the “polyreactivity (PSR sort gate)” value was “low polyreactivity”. With “QVQHVESGGGLVQAGGSLRLSCAASGSTIRYYTMGWYRQPPGKERELVAAITYSGGSTYYADSVKGRFTISRDNAKNTVYLQKNSLKPEDTAVYYCAKRWSQPKYDYWGQGTQVTVSS” the “polyreactivity (PSR sort gate)” value was “high polyreactivity”. In the case of “QVQHVESGGGLVQAGGSLRLSCAASGSTIYWYAMGWYRQAPGKERELVAAISLSGGSTYYADSVKGRFTISRDNAKNTVYLQMNSLKPEDTAVYYCAARTSYYVYRHPSGRYDYWGQGTQVSVSS”, the “polyreactivity (PSR sort gate)” value is reported as “low polyreactivity”. With “QVQHVESGGGLVQAGGSLRLSCAASGSTSPGYAMGWSRQAPGKERELVAAITFRGTRTYYADSVKGRFTISRDNAKNTVYLQMNSQKPEDTAVYYCNVVGYGPNRGRVDYWGQGTQVTVSS” the “polyreactivity (PSR sort gate)” value was “high polyreactivity”. For “QVQHVESGGGLVQAGGSLRLSCAASGYISVGYAMGWSRQAPGKERELVAAITESGGSTYYADSVKGRFTISRDNAKNTVYLQMNSLKPEDTAVYYCAADVIYEDRMDYWGQGTQVTVSS”, the “polyreactivity (PSR sort gate)” value was “low polyreactivity”. With “QVQHVESGGGLVQAGGSLRLSCAAYGFTFVRYAKGWYRQAPGKEREFVASISARGGNTFYADSVKGRFTISRDNAKNTVFLQMNSLKPEDTAVYYCAKRGPYGTGYGYWGQGTQVTVSS” the “polyreactivity (PSR sort gate)” value was “high polyreactivity”. For “QVQHVESGGGLVQAGGSLRLSCAAYYAMGWYRQAPGKERELVAAISSTGRTNYADSVKGRFTISRDNAKNTVYLQMNSLKPEDTAVYYCNAGDPSGMDYWGQGTQVTVSS”, the “polyreactivity (PSR sort gate)” value was “low polyreactivity”.
